From publication PMC8655018 (Nature Communications, 2021)

Columns and labels:
[1] = biological target: β-barrel assembly machinery (BAM), five components BamA-E, inserted in nanodiscs (E. coli, UniProt P0A940 21-810; P77774 20-392; P0A903 25-344; P0AC02 20-245; P0A937 20-113); assay: cryo-EM structure; MBP-EspP (3.6 μM, from urea) folded in vitro overnight into BAM nanodiscs (1.8 μM) with SurA (25.2 μM) in 1x TBS with 1 M urea, then SEC (Superdex 200 Increase); 7.0 Å map; conditions: both partners purified
[2] = biological target: BamA (subunit of E. coli BAM) (E. coli, UniProt P0A940 21-810); assay: as above; conditions: both partners purified

B1: MBP-EspP (residues 748–1300 of EspP) with an N-terminal 6xHis tag (domain or fragment)
chain: SGMFSTSDISISGNLSMTGNPDKDNKFEPSIYLNDASYLLTDDSARLVAKNKASVVGDIHSTKSASIMFGHDESDLSQLSDRTSKGLALGLLGGFDVSYRGSVNAPSASATMNNTWWQLTGDSALKTLKSTNSMVYFTDSANNKKFHTLTVDELATSNSAYAMRTNLSESDKLEVKKHLSGENNILLVDFLQKPTPEKQLNIELVSAPKDTNENVFKASKQTIGFSDVTPVITTRETDDKITWSLTGYNTVANKEATRNAAALFSVDYKAFLNEVNNLNKRMGDLRDINGEAGAWARIMSGTGSASGGFSDNYTHVQVGVDKKHELDGLDLFTGFTVTHTDSSASADVFSGKTKSVGAGLYASAMFDSGAYIDLIGKYVHHDNEYTATFAGLGTRDYSTHSWYAGAEAGYRYHVTEDAWIEPQAELVYGSVSGKQFAWKDQGMHLSMKDKDYNPLIGRTGVDVGKSFSGKDWKVTARAGLGYQFDLLANGETVLRDASGEKRIKGEKDSRMLMSVGLNAEIRDNVRFGLEFEKSAFGKYNVDNAVNANFRYSF
notes: also called MBP-EspP substrate
B1: binds [1]; binds [2].
